The source of these data is article PMC3878766 (2010).

Broadly, the Kd is a measure of binding affinity in units of concentration.

The assay addresses T1, Tolloid-like 1 (TLL-1) (Homo sapiens, UniProt O43897).
T1 chain: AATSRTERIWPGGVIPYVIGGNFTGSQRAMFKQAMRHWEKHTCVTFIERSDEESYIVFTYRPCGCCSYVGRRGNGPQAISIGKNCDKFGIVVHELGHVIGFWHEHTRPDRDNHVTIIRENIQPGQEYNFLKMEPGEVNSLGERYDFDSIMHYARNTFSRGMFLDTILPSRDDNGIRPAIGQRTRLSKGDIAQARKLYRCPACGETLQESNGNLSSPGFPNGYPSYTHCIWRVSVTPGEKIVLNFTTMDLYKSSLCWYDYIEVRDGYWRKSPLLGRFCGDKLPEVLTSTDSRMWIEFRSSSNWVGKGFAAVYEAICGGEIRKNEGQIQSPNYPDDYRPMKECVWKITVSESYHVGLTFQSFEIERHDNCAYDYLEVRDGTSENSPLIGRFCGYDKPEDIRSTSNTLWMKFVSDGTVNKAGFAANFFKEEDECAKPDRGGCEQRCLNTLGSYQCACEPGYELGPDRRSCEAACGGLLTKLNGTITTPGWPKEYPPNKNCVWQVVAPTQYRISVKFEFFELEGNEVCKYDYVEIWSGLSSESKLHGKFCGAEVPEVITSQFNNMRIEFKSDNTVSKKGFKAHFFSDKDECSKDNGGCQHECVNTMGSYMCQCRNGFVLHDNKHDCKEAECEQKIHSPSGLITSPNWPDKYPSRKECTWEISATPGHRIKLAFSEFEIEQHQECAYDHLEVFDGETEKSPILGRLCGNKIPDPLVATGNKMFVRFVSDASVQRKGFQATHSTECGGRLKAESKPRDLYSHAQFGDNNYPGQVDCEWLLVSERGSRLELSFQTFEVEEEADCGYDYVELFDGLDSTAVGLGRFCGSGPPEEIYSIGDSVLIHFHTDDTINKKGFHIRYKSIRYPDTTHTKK
As to the kind of experiment: sedimentation equilibrium AUC.

B1: Tolloid-like 1 (TLL-1) (protein)
chain: T1 chain
modifications: Ca2+ (0.5 mM CaCl2), V5-His6 tag
Molecule B1 returned a dissociation constant (Kd) of 2 nM.
